± gives the uncertainty stated by the source.

Among the data in the Human Domainome abundance scans (Beltran et al. 2025) are abundance fitness values, retold here.

Sequences and labels used below:
B1: V(D)J recombination-activating protein 2, residues 415 to 491; numbered along this chain, P55895 (parent)
chain: YWITCCPTCDVDINTWVPFYSTELNKPAMIYCSHGDGHWVHAQCMDLAERTLIHLSAGSNKYYCNEHVEIARALHTP

Variants of B1 are the subject of the data set. The experiment in a line: abundance fitness (aPCA) (normalised: wild type 0, dead -1); higher = more abundant; growth selection in yeast, the domain comes from the species named. The following applies: Homo sapiens.
For the variant YWITCCPTCDVDINTWVPFESTELNKPAMIYCSHGDGHWVHAQCMDLAERTLIHLSAGSNKYYCNEHVEIARALHTP [Y20E], the abundance fitness was -0.576 ± 0.3.

YWITCCPTCDVDINTWVPFMSTELNKPAMIYCSHGDGHWVHAQCMDLAERTLIHLSAGSNKYYCNEHVEIARALHTP [Y20M]: the abundance fitness is -0.383 ± 0.27.

For YWITCCPTCDVDINTWVPSYSTELNKPAMIYCSHGDGHWVHAQCMDLAERTLIHLSAGSNKYYCNEHVEIARALHTP [F19S], the abundance fitness was -0.154 ± 0.29.

For YWITCCPTCDVDINTWVPKYSTELNKPAMIYCSHGDGHWVHAQCMDLAERTLIHLSAGSNKYYCNEHVEIARALHTP [F19K], the abundance fitness was -0.116 ± 0.27.

As for YWITCCPTCDVDINTWVPDYSTELNKPAMIYCSHGDGHWVHAQCMDLAERTLIHLSAGSNKYYCNEHVEIARALHTP [F19D], the abundance fitness was determined as 0.099 ± 0.32.

YWITCCPTCDVDINTWVPGYSTELNKPAMIYCSHGDGHWVHAQCMDLAERTLIHLSAGSNKYYCNEHVEIARALHTP [F19G]: the abundance fitness was -0.142 ± 0.19.

Consider YWITCCPTCDVDINTWVPNYSTELNKPAMIYCSHGDGHWVHAQCMDLAERTLIHLSAGSNKYYCNEHVEIARALHTP [F19N], for which the abundance fitness amounted to 0.191 ± 0.46.

For the variant YWITCCPTCDVDINTWVPMYSTELNKPAMIYCSHGDGHWVHAQCMDLAERTLIHLSAGSNKYYCNEHVEIARALHTP [F19M], the abundance fitness is -0.029 ± 0.16.

For YWITCCPTCDVDINTWVPRYSTELNKPAMIYCSHGDGHWVHAQCMDLAERTLIHLSAGSNKYYCNEHVEIARALHTP [F19R], the abundance fitness was -0.145 ± 0.12.

Regarding YWITCCPTCDVDINTWVPPYSTELNKPAMIYCSHGDGHWVHAQCMDLAERTLIHLSAGSNKYYCNEHVEIARALHTP [F19P], the abundance fitness was -0.509 ± 0.15.

As for YWITCCPTCDVDINTWVPEYSTELNKPAMIYCSHGDGHWVHAQCMDLAERTLIHLSAGSNKYYCNEHVEIARALHTP [F19E], the abundance fitness is -0.179 ± 0.16.

Regarding YWITCCPTCDVDINTWVPAYSTELNKPAMIYCSHGDGHWVHAQCMDLAERTLIHLSAGSNKYYCNEHVEIARALHTP [F19A], the abundance fitness was -0.305 ± 0.13.

Take YWITCCPTCDVDINTWVPWYSTELNKPAMIYCSHGDGHWVHAQCMDLAERTLIHLSAGSNKYYCNEHVEIARALHTP [F19W]: the abundance fitness came out at 0.043 ± 0.19.

Turning to YWITCCPTCDVDINTWVPCYSTELNKPAMIYCSHGDGHWVHAQCMDLAERTLIHLSAGSNKYYCNEHVEIARALHTP [F19C], the abundance fitness was -0.186 ± 0.2.

For the variant YWITCCPTCDVDINTWVPYYSTELNKPAMIYCSHGDGHWVHAQCMDLAERTLIHLSAGSNKYYCNEHVEIARALHTP [F19Y], the abundance fitness was 0.08 ± 0.42.

For YWITCCPTCDVDINTWRPFYSTELNKPAMIYCSHGDGHWVHAQCMDLAERTLIHLSAGSNKYYCNEHVEIARALHTP [V17R], the abundance fitness was -0.022 ± 0.13.

As to YWITCCPTCDVDINTWNPFYSTELNKPAMIYCSHGDGHWVHAQCMDLAERTLIHLSAGSNKYYCNEHVEIARALHTP [V17N], the abundance fitness was -0.687 ± 0.44.

Turning to YWITCCPTCDVDINTWIPFYSTELNKPAMIYCSHGDGHWVHAQCMDLAERTLIHLSAGSNKYYCNEHVEIARALHTP [V17I], the abundance fitness is -0.153 ± 0.2.

Regarding YWITCCPTCDVDINTWSPFYSTELNKPAMIYCSHGDGHWVHAQCMDLAERTLIHLSAGSNKYYCNEHVEIARALHTP [V17S], the abundance fitness is -0.01 ± 0.2.

With YWITCCPTCDVDINTWEPFYSTELNKPAMIYCSHGDGHWVHAQCMDLAERTLIHLSAGSNKYYCNEHVEIARALHTP [V17E], the abundance fitness amounted to 0.046 ± 0.33.

In the case of YWITCCPTCDVDINTWLPFYSTELNKPAMIYCSHGDGHWVHAQCMDLAERTLIHLSAGSNKYYCNEHVEIARALHTP [V17L], the abundance fitness is -0.056 ± 0.11.

In the case of YWITCCPTCDVDINTWQPFYSTELNKPAMIYCSHGDGHWVHAQCMDLAERTLIHLSAGSNKYYCNEHVEIARALHTP [V17Q], the abundance fitness was determined as 0.074 ± 0.19.

On to YWITCCPTCDVDINTWMPFYSTELNKPAMIYCSHGDGHWVHAQCMDLAERTLIHLSAGSNKYYCNEHVEIARALHTP [V17M], for which the abundance fitness was -0.105 ± 0.25.

For the variant YWITCCPTCDVDINTWPPFYSTELNKPAMIYCSHGDGHWVHAQCMDLAERTLIHLSAGSNKYYCNEHVEIARALHTP [V17P], the abundance fitness is -0.375 ± 0.49.

In the case of YWITCCPTCDVDINTWWPFYSTELNKPAMIYCSHGDGHWVHAQCMDLAERTLIHLSAGSNKYYCNEHVEIARALHTP [V17W], the abundance fitness was -0.117 ± 0.15.

With YWITCCPTCDVDINTWFPFYSTELNKPAMIYCSHGDGHWVHAQCMDLAERTLIHLSAGSNKYYCNEHVEIARALHTP [V17F], the abundance fitness stood at 0.109 ± 0.23.

With YWITCCPTCDVDINTEVPFYSTELNKPAMIYCSHGDGHWVHAQCMDLAERTLIHLSAGSNKYYCNEHVEIARALHTP [W16E], the abundance fitness is -0.894 ± 0.36.

With YWITCCPTCDVDINTFVPFYSTELNKPAMIYCSHGDGHWVHAQCMDLAERTLIHLSAGSNKYYCNEHVEIARALHTP [W16F], the abundance fitness is -0.725 ± 0.42.

For the variant YWITCCPTCDVDINTPVPFYSTELNKPAMIYCSHGDGHWVHAQCMDLAERTLIHLSAGSNKYYCNEHVEIARALHTP [W16P], the abundance fitness is -0.471 ± 0.41.

Regarding YWITCCPTCDVDINTCVPFYSTELNKPAMIYCSHGDGHWVHAQCMDLAERTLIHLSAGSNKYYCNEHVEIARALHTP [W16C], the abundance fitness is -0.553 ± 0.23.

With YWITCCPTCDVDINTLVPFYSTELNKPAMIYCSHGDGHWVHAQCMDLAERTLIHLSAGSNKYYCNEHVEIARALHTP [W16L], the abundance fitness was -0.346 ± 0.2.

Turning to YWITCCPTCDVDINTRVPFYSTELNKPAMIYCSHGDGHWVHAQCMDLAERTLIHLSAGSNKYYCNEHVEIARALHTP [W16R], the abundance fitness was -0.35 ± 0.16.

On to YWITCCPTCDVDINTTVPFYSTELNKPAMIYCSHGDGHWVHAQCMDLAERTLIHLSAGSNKYYCNEHVEIARALHTP [W16T], for which the abundance fitness is -0.144 ± 0.38.

With YWITCCPTCDVDINTGVPFYSTELNKPAMIYCSHGDGHWVHAQCMDLAERTLIHLSAGSNKYYCNEHVEIARALHTP [W16G], the abundance fitness was -0.565 ± 0.15.

Turning to YWITCCPTCDVDINTIVPFYSTELNKPAMIYCSHGDGHWVHAQCMDLAERTLIHLSAGSNKYYCNEHVEIARALHTP [W16I], the abundance fitness was -0.12 ± 0.26.

For the variant YWITCCPTCDVDINTQVPFYSTELNKPAMIYCSHGDGHWVHAQCMDLAERTLIHLSAGSNKYYCNEHVEIARALHTP [W16Q], the abundance fitness was -0.916 ± 0.43.
